In the nanobody polyreactivity screen of Harvey et al. (2022):

Test: yeast display, Sf9 membrane polyspecificity reagent, FACS + sequencing; frameworks hold sequencing errors
Summary of the method: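 Synthetic nanobody libraries on Saccharomyces cerevisiae BJ5465 were galactose-induced for 36–48 hours, stained 1 hour at 4 °C with 10% biotinylated, detergent-solubilized Sf9 membrane reagent and enriched on streptavidin microbeads. FACS then separated cells into low and high (top ~1%) gates by anti-HA (expression) and streptavidin (reagent binding) fluorescence. Genes were colony-PCR amplified, MiSeq 2 × 250 sequenced and CDR-length filtered. A clone's polyreactivity label is that of its gate of origin.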

Sequence	polyreactivity (PSR sort gate)
QVQLVESGGGLVQAGGSLRLTCAASGSTLSTYVMGWYRQAPGKERELVAAITRRGGITYYADSVKGRFTISRDNAKNTVYLQMNSLKPEDTAVYYCAATGVRSKRLASQWKLYYWGQGTQVTVSS	high polyreactivity
QVQLVESGGGLVQAGGSLRLSSAASGSTFIGNAMGWYRQAPGTARELVAAITRSGGSTFYADSVKGRFTISRDNAKNTVYLQMNSLKPDDTAVYYCASKGNPYRVPCSSYPKVNYWGQGTQVTVSS	high polyreactivity
QVQLVESGGGLVQAGGSLRLSCAASGRTFYSYAMGWYRPAPGKERELVAAINSGGDTYYADSVKGRFTISRDNAKNTVYLQMNSLKPEDTAVYYCAADYYWEMDSWGQGTQVTVSS	low polyreactivity
QLQLVESGGGLVQAGGSLRLSCAASGRTFWYYAMGWYRQAPGKESELVAGISRGGSTNYADSVKGRFTISRDNAKNTVYLQMKSLKPADTAVYYCIVGRWYSQGTTGVFKGGYWGQGTQVTVSS	low polyreactivity
QVQLVESGGGLVQAGGSLRLSCAASGSTFPNYAMGWYRQAPGKERELVASISVTTGSTYYADSVKGRFTISRDYAKNTVYLQMNSLKPEDTAVYYCAKRTSSRKFRGAYNYWGQGTQVTVST	high polyreactivity
QVQLVESGGGLVQAGGSLRLSCAASGFTFYRYAMGWYRQAPGKERQLVAAISRRGGSTDYADSVKGRFTISRDNAKNTVYLQMNRLKPEDTAVYYCAASYSRGVGKLGYWGQGTQVTVSS	high polyreactivity
QVQLVESGGGLVQAGGTLRISCAASGITINYNAMGWYRQAPGKEMELVAAITRSGGSTNYADSVKGRFTISRDNAKNTVYLQMNSLKPEDTAVYYCAKGHLYAGHRHYAYGYWGQGTQVTVSS	low polyreactivity
QVQLVESGGGLVQAGGSLRLSCAASGLIFYYNAMGWYRQAPGKERELVAAISTGGSTNYADSVKGRFTISRDNAKNTVYLQMNSLKPEDTAVYYCAAGTRNPYGYKMYYWGQGTQVTVSS	high polyreactivity
QVQLVESGGGLVQAGGSLRLSCAASGSILYRYTMGWYRPAPGKERELVAAITKRGGRTYYADSVKGRFTISRDNAKNTVYLQMNSLKPEDTAVYYCAAKYYTGGSFEMYYGGQGTQVTVSS	high polyreactivity
QVQLVESGGGLVQAGGSLRLSCAASGSSLWENAMGWYRQAPGKERQLVATISVSGGGTYYADSVKGRFTISRDNAKNTVYLQMTSLKPEDTAVYYCTARYGNESQGWADYWGQGTQVTVSS	low polyreactivity
QVQLVDSGGGLVQAGGSLRLSCAASGRIFSWYTMGWYRQAPGKERELVAVITSGGTTKYADSVKGRFTISRDNAKNTVYLQMNSLKPEDTAVYYCNGAGRDYAVRWGSFDYWGQGTQVTVSS	low polyreactivity
QVQLVESGGGLVQAGGSLRLSCAASGFIFYSYAMGWYRQAPGKEREFVAAISRAGSTNYADSVKGRFTISRDNAKNTVYLQMNSLIPEDTAVYYCNKGYHSWSRLSQFGWSYDYWGQGTQVTVSS	high polyreactivity
QVQLVESGGGLVQAGGSLRLSCAASGSTFTLYAMGWYRQAPGKERELVAAISWSGDTTYYADSVKGRFTISRDNAKNTVYLQMNSLKPEDTAVYYCAADWYTSYYYEHESWGQGTQVTVSS	high polyreactivity
QVQLVESGGGLVHAGGSLRLSCASSGFTFWKYAIGGYRQAPGKERELVATISLGGARTYYADSVKGRFTISLDNAKNTVYLQMNSLKPEDTAVYYCNARCRWTANFDYWVQGTQVTVSS	high polyreactivity
QVQLVESGGGLVQAGGSLRLSCAASGSIFWYYAMGWYRQAPGKERELVAAISTSGTSTYYADSVKGRFTISRDNAKNTVYLQMNSLKPEDSAVYYCAKRSGARHRLMDYWGQGTQVTVSS	low polyreactivity
QVQLVESGGGLVQAGGSLRLSCAASGLTFDEYAMGWYRQPPGKERELVARITQSGGSTYYADSVKGRFTISRDNAKNTVYLQMNSLKPEDTAVYYCNAGAPARYWWEGDYWGQGTQVTVSS	high polyreactivity
QVQLVESGVVLVQAGGSLRLSCAASGRIFRYYVMGWYRQAPGKERELVAAITNDGGNTNYADSVKGRFTISRDNEKNTVYLQMNSLKPEDTAVYYCNADRTHDRNPYTYATFDYWGQGTQVTVSS	low polyreactivity
QVQLVESGGGLVQAGGSLRISCAAYGSTFGPYAMGWYRQAPGKERELVAAITWNGGSTYYADSVKGRFTISRDNAKNTVYLQMTSLKPEDTAVYYCAAKAYGRKGTYRVNYWGQGTQVTVSS	high polyreactivity
QVQLVESGGGLVQAGGSLRLSCAASGSTFTWYAMGWYRQAPGKERELVADISYGGGSTYYADSVKGRFTISRDNAKNTVYLQMNSLKPEDTAVYYCAADYRWYQRGNPMDYWGQGTQVNVSS	low polyreactivity
QVQLVESGGGLVQAGGSLRLSCAASGSTFPGYAMGWYRQAPGKERELVAAISKRGGSTYYADSVKGRFTISRDNAKNTVYLQMNSLKPEDTAVYYCATVSRKYSLDYWGQGTQVTVSS	high polyreactivity
QVQLVESGGGLVQAGGSLRLSCAASGGTFYVNAMGLYRQAPGKERELVAGIRESGASTYYADSVKGRFTISRDNAKNTVYFQMNSLQPEDTAVYYCAVDGPYPAASQSEVGYDYWGQGTQVTVSS	low polyreactivity
QVQLVESGGGLVQAGGSLRLSCAPSGSTLYRNAMGWYRQAPGQDRELVAAINYRGTRTYDADSVKGRFTISRDTAKNTVYLQMNSLQPEDTAVYFCAKDYSQFVTYPYDYWGQGTQVTVSS	low polyreactivity

Sequence	polyreactivity (PSR sort gate)
QVQLVESGGGLVQAGGSLRLSCAASGLILRKYAMGWYRQAPGKEREFVAAITQTGSRTYYADSVKVRFTISRDNAKYTVYFQMNSLIPEDTAVYYCNAVNYRSSRDSGYWGQGTQVTVSS	high polyreactivity
QVQLVESGGGLVQAGGSLRLSCAASGRTFFPYAMGWYRQAPGKERELVAAISLDDDTTYYADSVKGRFTISRDNAKNTVYLQMNSLKPEDTAVYYCAARGTRVRSLYDYWGQGTQVTVSS	high polyreactivity
QVQLVESGGGLVQAGGSLRLSCAAYGSIISYTMGWYRQAPGKERELVAAITSGRITYYADSVKGRFTISRDNAKNTVSLQMNRLKQEDTAVYYCNNDVGFTRPLYYWGQGTQVTVSS	low polyreactivity
QVQLVESGGGLVQAGGSLRLSCAASGRIFVGYAMGWYRQAPGKERELVAAINRSGSSTYYADSVKGRFTISRDYAKITVYLQMNSLKPEDTAVYYCNARSGNRYGPRYDYWGQGTQVTVSS	high polyreactivity
QVQLVESGGGLVQAGGSLRLSCAASGSTFPYNAMGWYRQAPGKERELVAAITWRAGRTYYADSVKGRFTISRDNAKNTVYLQMNSLKPEDTAVYYCAKSYQRGVNHYEYWGQGTQVTVSS	high polyreactivity
QVQLVESGGGLFKAGGSLRLSCAASGFIFYFYNMAWYRQAPGKERELVAAISKSGTSTYYAASVKGRFTISRDNAKNTVYLQMNSLKPEDPAVYYCNKVRRANFDYWGQGTQVTVSS	high polyreactivity
QVQLVESGGGLVQAGGSLRLSCASSGSIFAFNTLGWYRQAPGKERELVAAINSGGSTYYADSVKGRFTISRDNAKNTVYLQMNSLKPEDTAVYYCNARSYGIVVEYDYWGQGTQVTVSS	low polyreactivity
QVQLVESVGGLVQAGGSLRLSCAASGFTFGPYDMGWYRQAPGKERELVAVIIGGDSTNYADSVKGRFTISRDNAKNTVYLQMNSLKPEDTAVYYCAADYIDRVGWMDYWGQGTQVTVSS	low polyreactivity
QVQLVESAGGLVQAGGSLRLSCAASGYTSSLNAMGWYRQAPGKERELVARITTDGTSTYYADSVKGRFTISRDNAKNTVYLQMNSLKPEDTAVYYCNKRSHLYGNTPYYYWGQGTQVTVSS	low polyreactivity
QVQLVDSGGGLVQAGGRLRLSCAASGFIYEPNAMGGYRQAPGKEMELVAAISSGGSTYADSVKGRFTISRDNAKNTVYLQMNSLKPEDTAVYYCAADSYYSVWGFYYWGQGTQVTVSS	low polyreactivity
QVQLVESGGGLVQAGGSLRLSCAASGSIFYVYAMGWYRQAPGKEREFVASIRTSGSSTYADSVKGRFTISRDNAKNTVYLQMNSLKPEDTAVYYCAAGSITVFWKRTGYRWRGYDYWGQGTQVTVSS	low polyreactivity
QVQLVESGGGLVQAGGSLRLSCAASGSTFGYYAMGWYRQAPGKERELVATITIGGSTHYADSVKGRFTISRDNAKNTVYLQMNSLKPEDTAVYYCAKRYYTNRHSRAFGFWGQGSQVTVSS	high polyreactivity
QVQLVESGGGLVQAGGSLRLSCAASGRTFVYNAMGWYRQAPGKERELVAAISQSGGSTYYADSVKGRFTISRDTAKNSVYLQMNSLKPEVTAVYDCAARYTTGSYVRYNFWGQGTQVTVSS	high polyreactivity
QVQLVESGGGLVQAGGSLRLSCAASGRTSNGYAMGWYRQAPGKERELVAAYADSVKGRFTISRDNAKNTVYLQMNSLKPEDTAVYYCNADYYPVSRVGYVYWAYYYWGQGTQVTVSS	low polyreactivity
QVQLVESGGGLVQAGGSLRLSCAASGSSFRVYAMGWSRQAPGKERELVASISRRGGSTYYADSVKGRFTISRDNAKTTVYIQMNSLKPEDTAVYYCNVPYYSFRDVSSYYSGQGTQVTVSS	high polyreactivity
QVQLVESGGGLVQAGGSLRLSCAPSGIIFKGYAMGWSRQAPGKERELVAAISHNADSTYADSVKGRFTISRDNAKNTVYLQMNSLKPEDTAVYYCNADYLYHQTSRGKYYSWGQGTQVTVSS	low polyreactivity
QVQLVESGGGLVQAGGSLRLSCAASGSIFYSYDMGWYRQAPGKERELVAAIDWSGGSTYYADSVKGRFTISRDNAKNTVYLQMNSLKPEDTAVYYCAADDQVEGDYWGQGTQVTVSS	high polyreactivity
QVQLVESGGGLVQAGGSLRLSCAASGSTFGYYAMGWYRQAPGKERELVASINWRGDSTYYADSVKGRFTISRDNAKNTVYLQMNSLKPEDTAVYYCNKAYRRRYVQGEYWGQGTQVSVSS	high polyreactivity
QVQPVESGGGLVQAGGSLRLSCAASGFIFSSYAMGWYRQAPGKERELVAAITSGGSTNYADSVKGRFTISRDNAKNTVYLQMNSMKPEDTAVYYCATVPGGSWFFHWWSTGGDDEYWGQGTQVTVSS	low polyreactivity
QVQLVESVGGLDQAGGSLRLSCPASGRTFGKYAMGWYRQSPGKERELVARISRRGGTTYYADSVKGRFTISRDNAKNTVYLQLNSLKPEDTAVYYCNARRRDYRHWYDYWGQGTQVTVSS	high polyreactivity
QVQLVESGGGLVQAGGRLRLSCAASGITFWNYAMGWYRQAPGKETELVAAITGGSTYYADSVKGRFTISRDYAKNTVYLQMNSLKPEDTAVYYCNADSLFEYWDYDYWGQGTQVTVSS	low polyreactivity
